Laboratory results reported in patent US20250011363A1, “OPTIMIZED SHORTENED PEPTIDE THAT BINDS TO ACETYLCHOLINE RECEPTOR, AND USE THEREOF” (SKINMED CO., LTD., priority 2021, published 2025).

Each binder was assayed against acetylcholine receptor (assay: SPR, peptide at 10 uM, acetylcholine receptor immobilized on chip).

Binder | Binding affinity (RU)
KCAPR [5mer-917] | 11 RU
KMSVR [5mer-602] | 12 RU
RIEFK [5mer-938] | 18 RU
KCDDK [5mer-610] | 16 RU
RAEFR [5mer-613] | 20 RU
KHTFK [5mer-913] | 13 RU
RIHWK [5mer-606] | 25 RU
RKPKR [5mer-622] | 22 RU
KDKGR [5mer-636] | 11 RU
RFSHR [5mer-632] | 33 RU
KPDPK [5mer-904] | 23 RU
RYMDR [5mer-628] | 19 RU
RYMKK [5mer-933] | 27 RU
RINVK [5mer-909] | 33 RU
KHCIR [5mer-638] | 33 RU
KYTFR [5mer-929] | 28 RU
KMTHR [5mer-915] | 28 RU
RFCFK [5mer-601] | 13 RU
RAWVR [5mer-930] | 20 RU
KETWK [5mer-639] | 13 RU
KMSPK [5mer-627] | 30 RU
RNCWK [5mer-926] | 22 RU
RMWKR [5mer-922] | 14 RU
KCTNR [5mer-901] | 30 RU
RYCAK [5mer-617] | 28 RU
KICMR [5mer-626] | 12 RU
RMNGR [5mer-635] | 21 RU

Binder | Binding affinity (RU)
RMSWK [5mer-618] | 19 RU
RITFR [5mer-630] | 30 RU
KNTGR [5mer-623] | 19 RU
KNPHK [5mer-640] | 15 RU
KKMGR [5mer-912] | 16 RU
KDSVR [5mer-907] | 18 RU
KPKIK [5mer-920] | 15 RU
KKKFK [5mer-921] | 21 RU
REHGK [5mer-911] | 14 RU
RPSPR [5mer-905] | 30 RU
RTAWK [5mer-932] | 27 RU
RKEPK [5mer-603] | 27 RU
KMCDR [5mer-625] | 33 RU
RITER [5mer-931] | 11 RU
KCDHK [5mer-637] | 28 RU
RHHKR [5mer-903] | 21 RU
RPCFR [5mer-910] | 17 RU
KDHIR [5mer-611] | 33 RU
KHMVR [5mer-928] | 27 RU
RPANR [5mer-631] | 17 RU
KCTDK [5mer-612] | 23 RU
RKEGK [5mer-604] | 13 RU
RDEDR [5mer-927] | 19 RU
KASNR [5mer-937] | 21 RU
KFCPR [5mer-616] | 15 RU
KCSFK [5mer-619] | 19 RU
RNHKR [5mer-936] | 29 RU

Binder | Binding affinity (RU)
RCHER [5mer-916] | 12 RU
KMHAR [5mer-939] | 24 RU
RIEER [5mer-607] | 25 RU
RNNVR [5mer-918] | 12 RU
KKSMK [5mer-621] | 13 RU
RMMMR [5mer-634] | 26 RU
KNNIK [5mer-919] | 32 RU
RECFK [5mer-605] | 22 RU
RKHAK [5mer-906] | 31 RU
REDPK [5mer-902] | 23 RU
RNEKK [5mer-924] | 27 RU
RKTMK [5mer-609] | 32 RU
KCCNR [5mer-615] | 20 RU
RNTWK [5mer-614] | 29 RU
KDCFK [5mer-925] | 25 RU
RCHFK [5mer-908] | 25 RU
RCMHK [5mer-620] | 23 RU
RDSER [5mer-608] | 20 RU
KEHER [5mer-624] | 22 RU
RAAKR [5mer-633] | 20 RU
RPTMR [5mer-914] | 26 RU
KCWMK [5mer-923] | 19 RU
RPTNK [5mer-629] | 32 RU
KMMMR [5mer-934] | 17 RU
RETFK [5mer-935] | 32 RU
